B1: KLHL12 (parent)
chain: LDYTADEDGVWYSVAPMNVRRGLA
B2: KLHL13 (parent)
chain: GVSKVGLRKIIDFIYTAKLSLNMD

Variants of: B1
Test: protein stability index of a GFP-peptide fusion (GPS, HEK-293T) (PSI 1-6); higher = more stable
Conditions: c terminus: a fixed tail appended
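Also: lentivirally expressed fusions sorted by FACS into six bins by GFP to DsRed ratio, PSI derived from sequencing read proportions per bin multiplied by bin number.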

Protein stability index: each site, then its substitutions
D2: W 2.19, F 1.98, P 2.48, K 1.68, A 2.3, L 1.55, H 1.67, S 1.84, T 1.49, C 2.46, I 1.37, N 1.74, R 1.93, Q 1.47, M 2.4, E 1.76, G 2.96
L1: G 3.19, W 2.53, P 3.41, F 2.16, I 1.89, Y 2.32, R 2.99, A 3.26, T 3.18, D 3.47, M 2.2, Q 4, V 2.25, E 3.53, K 2.75, C 2.75, H 2.67, N 3.92, S 3.24

Variants of: B2
Test: as above
Conditions: c terminus: a fixed tail appended

Protein stability index, by site and new letter:
M23: Y 3.73, D 2.09, T 2.19, A 2.48, H 3.04, K 1, G 3.36, Q 1.55, S 1.79, C 2.45, R 3.14, N 1.53
N22: Y 1.99, R 2.09, L 2.11, I 2.68, S 2.36, H 2.41, E 2.73, W 1.31, Q 1.9, A 3.65, F 3.75, P 4.34, M 2.26, V 1.32, D 2.3
S3: M 2.17, H 3.22, T 2.37, Q 2.92, W 2.47, G 1.62, K 2.31, Y 3.66, D 2.68, R 2.45, V 4.55
I14: Y 2.27, M 3.04, Q 2.24, A 2.38, D 1.86, W 3.72, G 3.7, V 2.43, L 2.9, H 1.34, K 1.94, E 2.31, P 2.12, S 2.02, C 2.44, N 2.15
S20: W 1.85, K 3.46, P 2.25, R 2.11, V 1.96, H 2.7, E 4.11, I 2.04, A 3.46, Q 1.68, N 3.26, L 2.67
G6: R 2.15, L 4.85, V 3.71, S 2.08, P 2.12, K 2.84, H 3.04, E 1.47, Q 2.4, Y 3.06, C 1.49, W 2.32, N 2.05
I10: D 1.55, H 1.14, Q 2.35, C 1.53, W 4.2, G 2.31, R 2.74, N 1.63, P 1.81, T 2.02, K 2.98, S 4.37, E 1.48, Y 3.8, A 2.04
D12: G 3.19, H 1.92, Q 2.36, E 2.27, I 2.57, T 2.9, M 1.62, V 1.94, L 2.27, S 3.08, N 1.55
K18: Q 3.22, Y 2.88, L 1.76, M 2.52, H 2.72, P 2.89, C 2.46, G 2.55, T 2.15, N 2.17, S 3.44, W 2.7, R 2.63
A17: S 1.75, K 2.73, E 1.81, V 1.56, G 3.4, Y 3.45, W 3.08, R 2.95, P 2.39
L21: C 2.69, Q 3.01, E 1.53, N 1.83, W 1.96, F 2.21, P 1.86, A 1.94, S 2.72, D 1.8
T16: H 1.63, M 1.95, Y 2.74, W 1.79, V 1.81, I 2.72, G 2.86, P 2.57, R 2.69, E 1.95
Y15: G 2.51, M 2.48, A 3.72, P 1.84, N 4.89, F 3.84, D 1.8, R 4.12, T 2.52, Q 1.36, L 2.07
D24: Y 2.2, Q 2.15, G 3.65, V 2.49, H 3.01, M 2.28, F 2.82, L 2.01, P 2.88, A 3.2, R 3.43, K 1.71, T 3.01, N 2.74
I11: P 1.97, E 2.1, K 4.1, D 2.14, G 2.63, H 4.7, N 2.24, Y 4.12, Q 1.61, L 3.57, A 1.87, M 3.33, S 1.89
K4: Y 1.85, T 4.12, C 2.64, I 1.94, W 2.34, D 4.34, F 3.29, M 2.42, L 1.93, H 2.18, A 3.12, E 2.77, N 2.24, S 2.88, R 2.95
L19: Q 2.21, H 1.87, W 2.93, V 3.11, S 1.63, N 3.62, C 2.34, T 2.95, D 1.36
R8: K 4.72, I 2.55, A 5.37, H 2.07, M 1.69, W 3.31, G 2.07, L 4.65, P 1.92, D 3.02, C 2.46, E 1.49
V2: N 2.03, F 1.65, S 1.79, Y 2.11, D 3.51, C 1.52, G 3.41, K 2.38, H 1.7, T 4.01, P 1.83
L7: K 1.86, S 2.94, T 2.6, W 2.05, F 2.93, Q 2.97, H 3.17, R 2.5, G 3.85, A 2.27, I 3.25, C 3.38
K9: M 2.42, S 2.4, D 3.8, I 3.12, Y 2.81, H 2.64, L 2.37, V 4.21, A 4.24, C 3.38, N 3.3, Q 2.03, E 1.78, G 1.91
F13: P 2.22, T 1.93, E 1.43, M 2.74, C 2.83, R 1.54, V 3.34, Q 1.04, S 1.44, K 1.66, G 2.41, D 1.7, H 2.62, N 1.48
G1: S 3.05, W 3.32, Q 2.05, H 2.49, N 2.53, A 3.93, L 2.96, T 3.89, K 2.08, P 1.75
V5: F 4.57, R 3.04, C 2.67, L 2.12, Y 2.06, Q 3.5, A 2.64, T 4.05, I 1.5, N 3.8, W 3.14, S 3.47, E 1.83, P 2.58, M 2.27, G 3.21

— the supplement of paper PMC10567573
